Data on 9 molecules can be found in patent publication US20220411799, “DNMT1-Specific Aptamers and Production and Uses Thereof” (National University of Singapore, published 2022).

A word on the Kd: it is a measure of binding affinity in units of concentration.

For data set [1], the target named is Human serum albumin (HSA) (Homo sapiens, UniProt P02768 P02768:25-609). The experiment in a line: ELONA; no significant binding up to 750 nM. Particulars: label: 3'-biotin (ELONA, pulldown); hairpin. The procedure:
(§1) Microtiter High Binding plate (Nunc MaxiSorp) wells were coated with 30 nM of His-tagged DNMT1 (Active Motif) or HSA overnight at 4° C. All subsequent steps were performed at room temperature. After incubation, the plate was washed once with PBS and then blocked each well with 300 μl 3% BSA (AppliChem) in PBS for 2 hours. After two washes, the plate was incubated with 100 μL of 3′-biotinylated aptamers dissolved in PBS for 2 hours. Next, the plate was washed three times and streptavidin-conjugated horseradish peroxidase (HRP) (Sigma Aldrich) was added (1:10000 dilution). After 1-hour incubation, the plate was washed four times and the 3,3′,5,5′-Tetramethylbenzidine (TMB) substrate solution was added. The reaction was stopped with sulfuric acid (H₂SO₄) 0,16 M, forming a yellow reaction product that was read with microplate Reader (Thermo Scientific) at 450 nm.
To check the aptamer specificity, the present disclosure monitored the binding of Ce-49 sh and Ce-10-2 sh to the human serum albumin (HSA), the most enriched plasma protein that can bind, in a nonspecific manner, nucleic acids through its positive charge, thus limiting their use. […] As shown, no significant aptamer binding was measured up to 750 nM concentration. Binding was instead detected when aptamers were incubated with DNMT1 protein (FIG. 7).

Another data set has as its target DNMT3B (UniProt Q9UBC3 Q9UBC3:1-853). The experiment in a line: BLI; specificity control. (Biolayer interferometry detects binding as a change in optical thickness at a sensor tip.)
The target of a further data set is KAT5 (UniProt Q92993 Q92993:1-513). The experiment in a line: BLI; specificity control. The conditions noted are these: label: 3'-biotin (ELONA, pulldown); hairpin.
For another data set, the target named is DNMT3A (UniProt Q9Y6K1 Q9Y6K1:1-912). The experiment in a line: BLI; specificity control.
The target in data set [2] is T1, DNMT1 (Homo sapiens, UniProt P26358 P26358:1-1616). The experiment in a line: inhibition; in vitro DNMT1 inhibitor screening assay. Particulars: tags: His-tagged (Active Motif), full-length; GST-tagged version (Active Motif) used for SELEX; label: 3'-biotin (ELONA, pulldown); hairpin. On the procedure:
FIG. 5. Functional activity of the aptamers. (a) Activity of purified DNMT1 protein was analyzed in vitro by DNMT1 inhibitor screening assay in the absence (“-”) or in the presence of indicated aptamers. Results are expressed as percentage relative to the activity of DNMT1 protein alone; b. DNMT1 inhibitor screening assay performed with K-562 nuclear extracts from untreated cells (NT), treated with a sequence unable to bind DNMT1 (control) or transfected with the respective aptamers Ce-10-2 sh and Ce-49 sh. Results are expressed as percentage relative to the activity detected in NT sample; c. expression levels 72 hours upon aptamers transfection; d, e. Cell viability of CML K562 cells (d) or NSCLC Calu-1 and A549 cells (e) transfected with indicated aptamers or Cont. for 72 hours. In (a-d) Error bars depict mean±s.d.; R5-F: R5 sequence modified with 2′F-Py.
As next step, the present disclosure tested aptamer ability to inhibit DNMT1-mediated methylation. As first attempt, the present disclosure performed an in vitro DNMT1 inhibitor screening assay. The activity of DNMT1 purified protein was measured in the absence or in the presence of R5-F or the selected short sequences. […] The functional effects of the best binders (Ce-49 sh and Ce-10-2 sh) was further characterized monitoring the in vivo DNMT1 activity by using cell nuclear extracts from chronic K562 CML cells transfected with the aptamers (FIG. 5b).

The target of data set [3] is T1, DNMT1. The experiment in a line: BLI; BLItz, mutR5 background subtracted. The conditions noted are these: tags: His-tagged (Active Motif), full-length; GST-tagged version (Active Motif) used for SELEX; label: 3'-biotin (ELONA, pulldown); hairpin. From the text: FIG. 4. Affinity and in vivo binding of DNMT1-specific aptamers. a. Analysis of Ce-49 sh and Ce-10 sh binding affinity to DNMT1 assessed by the Blitz system (ForteBIO). The background values obtained with mutR5 used as a negative control were subtracted from the values obtained with the aptamers; REMSA showing stronger Ce-49 sh and Ce-10 sh binding ability to DNMT1 than two alternative secondary structures of the original R5F (R5modified with 2′F-Py). Unrelated RNA and DNA are two […] controls. R01(unable to form stem-loop-like structures) is used as negative control; c. Increasing amount of Ce-49 sh and Ce-10 sh biotinylated aptamers were incubated in the presence or absence of HSA purified protein. No significant difference was detected between the blank control and the aptamers by ELONA. Error bars depict mean±s.d.; d. Aptamer-mediated pull-down. Protein extract from K562 cells were incubated with the biotinylated R5-F, Ce-49 sh and Ce-10-2 sh. Bound proteins were purified on streptavidin beads and immunoblotted with anti-DNMT1 antibodies.
Next, aptamer affinity to DNMT1 was assessed by the Blitz system (ForteBIO).

In data set [4] the target is T1, DNMT1. The experiment in a line: ELONA; 200 nM aptamer. Particulars: tags: His-tagged (Active Motif), full-length; GST-tagged version (Active Motif) used for SELEX; label: 5'-biotin; hairpin. On the procedure:
as §1
The present disclosure identified three clusters of sequences with two aptamers (Ce-9 and Ce-10) representing the most enriched ones (FIG. 2a). These two aptamers present two mismatches among them and both had three mutation points compared to R5 (FIG. 2b). These sequences, together with Ce-49 that comes from a different cluster, were tested for the binding to DNMT1 purified protein by ELONA at 200 nM concentration.

The target of data set [5] is T1, DNMT1. The experiment in a line: inhibition; all short sequences stated. Particulars: tags: His-tagged (Active Motif), full-length; GST-tagged version (Active Motif) used for SELEX; label: 3'-biotin; hairpin.
For data set [6], the target named is T1, DNMT1. The experiment in a line: BLI; 100 nM to 2 uM; R2=0.9017; p159 states Kd not measurable. The conditions noted are these: tags: His-tagged (Active Motif), full-length; GST-tagged version (Active Motif) used for SELEX; label: 3'-biotin (ELONA, pulldown); hairpin. The procedure: Dose-response binding analyses were also performed with the 2′F-pyrimidine modified R5 (indicated as DNMT1-bait) at concentrations ranging between 100 nM and 2 μM, since no binding was detected at lower concentrations (FIG. 8a). In accordance with previous findings, no binding was detected for the mutR5 sequence which is unable to fold in stem-loop-like structures and used as a negative control (FIG. 8b).

Positions count from the first letter of the chain named.

Chain of KAT5 (Q92993 whole entry, one chain of several): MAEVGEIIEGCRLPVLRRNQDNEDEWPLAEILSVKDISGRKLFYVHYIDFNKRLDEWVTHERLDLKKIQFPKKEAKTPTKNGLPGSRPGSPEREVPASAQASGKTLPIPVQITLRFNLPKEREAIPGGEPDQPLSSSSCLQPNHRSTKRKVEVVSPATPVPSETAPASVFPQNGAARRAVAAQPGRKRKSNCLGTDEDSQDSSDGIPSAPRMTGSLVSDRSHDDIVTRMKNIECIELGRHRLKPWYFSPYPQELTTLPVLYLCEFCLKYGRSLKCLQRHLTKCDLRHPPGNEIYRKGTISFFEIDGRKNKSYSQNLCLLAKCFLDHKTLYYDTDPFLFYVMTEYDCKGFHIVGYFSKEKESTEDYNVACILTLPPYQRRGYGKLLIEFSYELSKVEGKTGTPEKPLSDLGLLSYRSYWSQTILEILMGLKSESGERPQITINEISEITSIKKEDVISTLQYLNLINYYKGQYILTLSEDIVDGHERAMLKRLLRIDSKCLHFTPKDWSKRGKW
Chain of DNMT3A (Q9Y6K1 whole entry, one chain of several): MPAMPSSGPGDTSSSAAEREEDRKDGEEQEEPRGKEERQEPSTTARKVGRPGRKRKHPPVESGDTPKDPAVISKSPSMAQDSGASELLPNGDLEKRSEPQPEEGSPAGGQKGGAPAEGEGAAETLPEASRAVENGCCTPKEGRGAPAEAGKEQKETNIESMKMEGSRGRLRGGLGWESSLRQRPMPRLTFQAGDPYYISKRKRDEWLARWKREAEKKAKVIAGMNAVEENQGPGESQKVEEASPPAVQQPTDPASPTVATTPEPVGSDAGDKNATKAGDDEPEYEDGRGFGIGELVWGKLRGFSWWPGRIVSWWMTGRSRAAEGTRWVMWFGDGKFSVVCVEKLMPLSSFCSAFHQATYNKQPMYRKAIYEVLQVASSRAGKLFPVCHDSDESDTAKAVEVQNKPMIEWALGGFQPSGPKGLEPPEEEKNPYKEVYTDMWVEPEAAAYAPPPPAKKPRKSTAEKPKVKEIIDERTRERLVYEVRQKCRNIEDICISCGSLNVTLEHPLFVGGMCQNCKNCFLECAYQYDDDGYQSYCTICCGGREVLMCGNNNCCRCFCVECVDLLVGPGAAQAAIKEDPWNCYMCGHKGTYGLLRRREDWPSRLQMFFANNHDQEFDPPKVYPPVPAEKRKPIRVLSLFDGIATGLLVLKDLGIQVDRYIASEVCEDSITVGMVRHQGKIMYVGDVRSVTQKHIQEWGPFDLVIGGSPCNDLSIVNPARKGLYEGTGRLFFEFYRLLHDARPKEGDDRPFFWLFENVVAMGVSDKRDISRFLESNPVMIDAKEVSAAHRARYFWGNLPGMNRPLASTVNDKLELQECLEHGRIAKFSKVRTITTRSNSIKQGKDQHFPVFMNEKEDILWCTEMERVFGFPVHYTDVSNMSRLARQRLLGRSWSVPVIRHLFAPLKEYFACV
T1 sequence (P26358 whole entry, one chain of several): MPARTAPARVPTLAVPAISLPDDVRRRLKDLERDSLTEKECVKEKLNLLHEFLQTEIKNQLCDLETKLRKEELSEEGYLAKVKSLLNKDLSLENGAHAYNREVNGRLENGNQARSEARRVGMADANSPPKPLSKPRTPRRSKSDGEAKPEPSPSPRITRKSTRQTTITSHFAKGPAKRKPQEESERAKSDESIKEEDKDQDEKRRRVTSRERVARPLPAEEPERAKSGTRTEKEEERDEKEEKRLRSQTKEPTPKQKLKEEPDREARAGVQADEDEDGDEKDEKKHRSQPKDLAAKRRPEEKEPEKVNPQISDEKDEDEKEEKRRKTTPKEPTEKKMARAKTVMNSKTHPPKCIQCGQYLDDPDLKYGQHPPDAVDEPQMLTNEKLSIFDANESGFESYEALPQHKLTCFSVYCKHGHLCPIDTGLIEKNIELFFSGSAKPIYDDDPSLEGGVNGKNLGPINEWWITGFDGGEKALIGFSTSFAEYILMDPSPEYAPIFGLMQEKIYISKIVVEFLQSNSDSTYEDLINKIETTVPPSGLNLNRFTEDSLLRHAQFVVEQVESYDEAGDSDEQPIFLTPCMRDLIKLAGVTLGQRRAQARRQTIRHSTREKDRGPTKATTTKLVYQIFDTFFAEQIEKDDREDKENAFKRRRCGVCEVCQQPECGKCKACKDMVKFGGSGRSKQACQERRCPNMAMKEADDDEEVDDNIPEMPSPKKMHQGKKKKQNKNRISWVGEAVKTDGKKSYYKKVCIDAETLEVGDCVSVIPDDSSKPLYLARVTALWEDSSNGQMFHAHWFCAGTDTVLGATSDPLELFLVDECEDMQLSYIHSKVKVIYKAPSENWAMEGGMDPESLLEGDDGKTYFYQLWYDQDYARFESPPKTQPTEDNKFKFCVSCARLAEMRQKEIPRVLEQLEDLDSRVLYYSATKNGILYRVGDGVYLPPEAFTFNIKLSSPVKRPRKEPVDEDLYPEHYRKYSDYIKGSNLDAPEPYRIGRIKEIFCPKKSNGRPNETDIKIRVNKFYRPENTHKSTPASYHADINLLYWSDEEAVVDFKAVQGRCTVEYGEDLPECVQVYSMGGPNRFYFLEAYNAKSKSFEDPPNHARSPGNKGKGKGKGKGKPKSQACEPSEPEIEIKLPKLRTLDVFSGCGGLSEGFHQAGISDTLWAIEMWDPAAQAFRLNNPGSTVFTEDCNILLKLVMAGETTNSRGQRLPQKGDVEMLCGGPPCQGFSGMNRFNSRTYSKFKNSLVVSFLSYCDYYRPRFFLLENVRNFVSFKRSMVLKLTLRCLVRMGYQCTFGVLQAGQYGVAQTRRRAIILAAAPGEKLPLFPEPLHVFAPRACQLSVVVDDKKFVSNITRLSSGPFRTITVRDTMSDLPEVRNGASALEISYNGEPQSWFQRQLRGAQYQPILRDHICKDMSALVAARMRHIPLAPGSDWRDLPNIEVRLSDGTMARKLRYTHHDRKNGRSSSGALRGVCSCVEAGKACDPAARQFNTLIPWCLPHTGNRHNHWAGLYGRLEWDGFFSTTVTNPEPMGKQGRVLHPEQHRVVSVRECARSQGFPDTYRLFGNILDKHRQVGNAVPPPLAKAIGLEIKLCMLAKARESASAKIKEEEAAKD
Chain of Human serum albumin (HSA) (P02768 25-609, one chain of several): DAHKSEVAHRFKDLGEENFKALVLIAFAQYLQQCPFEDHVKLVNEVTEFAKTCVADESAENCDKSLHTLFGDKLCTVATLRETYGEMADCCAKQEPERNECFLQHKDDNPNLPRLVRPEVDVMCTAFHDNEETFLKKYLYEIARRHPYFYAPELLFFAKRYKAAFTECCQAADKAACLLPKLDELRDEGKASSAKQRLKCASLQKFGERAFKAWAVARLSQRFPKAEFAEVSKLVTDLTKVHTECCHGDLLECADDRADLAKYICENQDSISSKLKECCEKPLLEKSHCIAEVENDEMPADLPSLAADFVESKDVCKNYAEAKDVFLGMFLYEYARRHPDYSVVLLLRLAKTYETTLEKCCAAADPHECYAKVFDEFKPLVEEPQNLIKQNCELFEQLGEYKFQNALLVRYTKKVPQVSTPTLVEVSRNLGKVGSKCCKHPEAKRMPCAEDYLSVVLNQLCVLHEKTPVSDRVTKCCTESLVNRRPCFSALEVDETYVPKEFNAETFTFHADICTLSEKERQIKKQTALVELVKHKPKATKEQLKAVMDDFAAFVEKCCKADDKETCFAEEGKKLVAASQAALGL

For UUACUGGGCUGAGGUAAUGGCGAGG (ssRNA, 2'-F pyrimidines) [Ce-10-2 sh], the binding result (in data set [1]; with DNMT3B; in the data set with KAT5; with DNMT3A) was “no binding” throughout. Further, the activity in the data set with DNMT1 [2] was roughly 40 % inhibition. For the same molecule, the Kd with DNMT1 [3] was roughly 66 nM.

B1: Ce-9 (long, 61-mer) (ssRNA)
RNA: GGGCUGAAGGGGUUACUGGGCUGAGCUCAUGGCGAGGCUUCUUAUCUGCCCCGGGGAGGAG
modifications: 2'-F pyrimidines
Consider B1, for which the binding result with DNMT1 [4] is “binds”.

B2: Ce-10 (long, 61-mer) (ssRNA)
RNA: B1 RNA with C26G, C28A
modifications: 2'-F pyrimidines
Regarding B2, the binding result with DNMT1 [4] is on record as “binds”.

B3: Ce-49 (long, 61-mer) (ssRNA)
RNA: GGGCUGAAGGGGUUACUGGGCUGAGGCCUAACGAAGGCUUCUUAUCUGCCCCGGGGAGGAG
modifications: 2'-F pyrimidines
For B3, the binding result in the data set with DNMT1 [4] is reported as “binds”.
In the data set with DNMT1 [5], UGGGCUGAGCUCAUGGCGAGGCUUC (ssRNA, 2'-F pyrimidines) [Ce-9 sh] displayed an activity of roughly 40 % inhibition.
CUGAGGCCUUGGCGAGGCUUCU (ssRNA, 2'-F pyrimidines) [R5-F (DNMT1 bait)] displayed a Kd with DNMT1 [6] of 600 nM. Also, the binding result with DNMT3B, with KAT5 and with DNMT3A was “no binding” in each case. The activity in the data set with DNMT1 [2] is roughly 40 % inhibition.
On to AGGUAAUGGCGAGGCUUCUUAUCUG (ssRNA, 2'-F pyrimidines) [Ce-10-1 sh], for which the activity with DNMT1 [5] is roughly 40 % inhibition.
CUGAGGCCUAACGAAGGCUUCU (ssRNA, 2'-F pyrimidines) [Ce-49 sh]: the binding result (in [1]; with DNMT3B; with KAT5; with DNMT3A) was “no binding” throughout. The molecule also came in with an activity with DNMT1 [2] of roughly 40 % inhibition. For the same molecule, the Kd with DNMT1 [3] is roughly 79 nM.
As to CUGAGGUAAUGGCGAGGCUUCU (ssRNA, 2'-F pyrimidines (listed with T in the sequence, described as RNA)) [Ce-10-R5], in the data set with DNMT1 [5], the activity is roughly 40 % inhibition.
